Target: Homo sapiens importin-β (Homo sapiens, UniProt Q14974 1-876)
Experiment: partitioning into phase-separated condensates

Chain of Homo sapiens importin-β (Q14974 whole entry): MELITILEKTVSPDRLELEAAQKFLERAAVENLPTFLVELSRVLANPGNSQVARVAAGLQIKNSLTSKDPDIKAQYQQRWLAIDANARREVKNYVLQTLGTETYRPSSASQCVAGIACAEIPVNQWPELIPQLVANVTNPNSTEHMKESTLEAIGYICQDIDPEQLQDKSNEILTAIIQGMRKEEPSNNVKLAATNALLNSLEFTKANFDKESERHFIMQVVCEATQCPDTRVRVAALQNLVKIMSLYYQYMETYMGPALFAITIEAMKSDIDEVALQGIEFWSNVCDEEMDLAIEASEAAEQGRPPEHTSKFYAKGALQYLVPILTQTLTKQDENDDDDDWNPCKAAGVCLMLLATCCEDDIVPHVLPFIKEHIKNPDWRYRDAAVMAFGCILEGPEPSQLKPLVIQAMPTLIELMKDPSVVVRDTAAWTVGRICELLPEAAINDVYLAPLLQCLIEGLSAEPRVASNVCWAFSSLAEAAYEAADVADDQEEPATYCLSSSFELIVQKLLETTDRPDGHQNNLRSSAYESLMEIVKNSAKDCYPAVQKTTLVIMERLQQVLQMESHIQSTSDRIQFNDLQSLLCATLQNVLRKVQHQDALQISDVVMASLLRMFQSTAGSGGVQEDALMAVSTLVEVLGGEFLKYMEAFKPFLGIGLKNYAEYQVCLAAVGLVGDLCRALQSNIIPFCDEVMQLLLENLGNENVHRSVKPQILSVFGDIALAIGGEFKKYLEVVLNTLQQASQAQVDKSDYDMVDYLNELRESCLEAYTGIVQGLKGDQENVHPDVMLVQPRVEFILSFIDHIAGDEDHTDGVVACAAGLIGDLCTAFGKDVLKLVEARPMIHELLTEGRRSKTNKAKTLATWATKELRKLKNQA

B1: Homo sapiens NUP98 FG domain (residues 1-505, GLEBS domain residues 157-213 excluded) (domain or fragment, UniProt P52948 1-505, looked up)
chain: MFNKSFGTPFGGGTGGFGTTSTFGQNTGFGTTSGGAFGTSAFGSSNNTGGLFGNSQTKPGGLFGTSSFSQPATSTSTGFGFGTSTGTANTLFGTASTGTSLFSSQNNAFAQNKPTGFGNFGTSTSSGGLFGTTNTTSNPFGSTSGSLFGPSSFTAAGPQNQVGAGTTTGLFGSSPATSSATGLFSSSTTNSGFAYGQNKTAFGTSTTGFGTNPGGLFGQQNQQTTSLFSKPFGQATTTQNTGFSFGNTSTIGQPSTNTMGLFGVTQASQPGGLFGTATNTSTGTAFGTGTGLFGQTNTGFGAVGSTLFGNNKLTTFGSSTTSAPSFGTTSGGLFGNKPTLTLGTNTNTSNFGFGTNTSGNSIFGSKPAPGTLGTGLGAGFGTALGAGQASLFGNNQPKIGGPLGTGAFGAPGFNTTTATLGFGAPQAPVALTDPNASAAQQAVLQQHI
binding result: binds

Reference: paper doi:10.64898/2025.12.09.693204 (bioRxiv, 2025)
